Measured values from patent US20240116985A1, “STAPLED PEPTIDES AND METHODS THEREOF” (priority 2020, published 2024).
Starred links: 1 amine or outer side, 2 acyl side, 3 side chain; linkers in the order of their positions; H or OH if unused. Positions of bridges follow the written chain, without caps; N, C: chain ends. Non-standard residues stand in square brackets, D forms with d. Primed or numbered codes have the meaning given here. *: point of attachment. PyrS2″ = (S)-3-amino-1-((pent-4-en-1-yloxy)carbonyl)pyrrolidine-3-carboxylic acid (stapling residue), C=CCCCOC(=O)N1CC[C@@](N[*:1])(C(=O)[*:2])C1; B5(4) = 2,2-bis(4-pentenyl)glycine = 2-amino-2-(pent-4-en-1-yl)hept-6-enoic acid (stitching residue), C=CCCCC(CCCC=C)(N[*:1])C(=O)[*:2]; B5(5) = 2,2-bis(4-pentenyl)glycine, 2-amino-2-(pent-4-en-1-yl)hept-6-enoic acid (stitching residue), C=CCCCC(CCCC=C)(N[*:1])C(=O)[*:2]; TfeGA = (S)-2-amino-3-((carboxymethyl)(2,2,2-trifluoroethyl)amino)propanoic acid, O=C([C@H](CN(CC(=O)[*:3])CC(F)(F)F)N[*:1])[*:2]; B5(31) = 2-amino-2-(pent-4-en-1-yl)hept-6-enoic acid (bis-pentenylglycine, stitching residue), C=CCCCC(CCCC=C)(N[*:1])C(=O)[*:2]; PyrS2 = (S)-3-amino-1-((pent-4-en-1-yloxy)carbonyl)pyrrolidine-3-carboxylic acid, C=CCCCOC(=O)N1CC[C@@](N[*:1])(C(=O)[*:2])C1; (bismethoxyethylamine)GlnR″ = N5,N5-bis(2-methoxyethyl)-L-glutamine, COCCN(CCOC)C(=O)CC[C@H](N[*:1])C(=O)[*:2]; MorphAsn = (S)-2-amino-4-morpholino-4-oxobutanoic acid, O=C(C[C@H](N[*:1])C(=O)[*:2])N1CCOCC1; B5(3) = 2,2-bis(4-pentenyl)glycine (stitching residue), C=CCCCC(CCCC=C)(N[*:1])C(=O)[*:2]; CO2Hex = N-term cyclohexyl hydrogen carbonate, O=C(OC1CCCCC1)*; CO2Ph = N-term phenyl hydrogen carbonate, O=C(Oc1ccccc1)*; Nva(5-morpholino) = N[C@@H](CCCN1CCOCC1)C(=O)O; Phe(3-COOH) = N[C@@H](Cc1cccc(C(=O)O)c1)C(=O)O; 2F3MeF = Cc1cccc(C[C@H](N[*:1])C(=O)[*:2])c1F; Phe(2-Cl) = N[C@@H](Cc1ccccc1Cl)C(=O)O; Bta = N[C@@H](Cc1csc2ccccc12)C(=O)O; Lys(iPr) = CC(C)NCCCC[C@H](N)C(=O)O; αAllylPro = C=CC[C@@]1(C(=O)O)CCCN1; Azidoacetyl = [N-]=[N+]=NCC(=O)*; tBuAla = CC(C)(C)C[C@H](N)C(=O)O; 3Thi = N[C@@H](Cc1ccsc1)C(=O)O; Cha = N[C@@H](CC1CCCCC1)C(=O)O; hSer = N[C@@H](CCO)C(=O)O; 34ClF = not defined here; Aib = CC(C)(N)C(=O)O; Moc = COC(=O)*

target: full-length beta-Catenin (Uniprot ID P35222) (Homo sapiens (Human)) (UniProt P35222); test: fluorescence polarization competition; full-length beta-catenin, competitor 5FAM-TCF4(10-53) probe

IC50 [µM] | EC50 [µM] | Binder
0.267 | – | Ac-[αAllylPro]D[tBuAla][B5(5)]NT[Aib]AFN[PyrS2″][3Thi][Bta]F-NH2 (staple 1-4, 4-11) [I-2412]
0.046 | – | Ac-[αAllylPro]N[Cha][B5(5)]DQ[Lys(iPr)]AFL[PyrS2″]F[Bta][MorphAsn]-NH2 (staple 1-4, 4-11) [I-2426]
0.203 | – | Ac-[αAllylPro]N[Cha][B5(5)]DQ[hSer]AFL[PyrS2″]F[Bta]K-NH2 (staple 1-4, 4-11) [I-2419]
– | 6.49 | Azidoacetyl-[αAllylPro]D[tBuAla][B5(5)][3Thi][TfeGA]AAFN[PyrS2]D[Bta]Q-NH2 (staple 1-4, 4-11; also: staple isomer unspecified: earlier eluting HPLC peak) [I-1056]
0.145 | – | Ac-[αAllylPro]N[Cha][B5(5)]DQQAFL[PyrS2″]F[Bta]K-NH2 (staple 1-4, 4-11) [I-2421]
10 | – | Ac-[αAllylPro]N[tBuAla][B5(31)]NTAAFN[PyrS2″][3Thi][Bta]Q-NH2 (staple 1-4, 4-11) [I-2333]
– | 0.007 | Azidoacetyl-[αAllylPro]D[tBuAla][B5(5)]DDAAFN[PyrS2]F[Bta]H-NH2 (staple 1-4, 4-11) [I-1055]
2.12 | – | Ac-[αAllylPro]N[Cha][B5(5)]DQNAFL[PyrS2″]F[Bta]K-NH2 (staple 1-4, 4-11) [I-2420]
– | 0.014 | Azidoacetyl-[αAllylPro]D[tBuAla][B5(5)]DDAAFN[PyrS2][3Thi][Bta][dT]-NH2 (staple 1-4, 4-11) [I-1058]
0.401 | – | Ac-[αAllylPro]N[Cha][B5(5)]DQ[Lys(iPr)]AFL[PyrS2″]F[Bta][Nva(5-morpholino)]-NH2 (staple 1-4, 4-11) [I-2428]
– | 0.038 | Azidoacetyl-[αAllylPro]D[tBuAla][B5(5)]DDAAFT[PyrS2][Phe(2-Cl)][Bta][dT]-NH2 (staple 1-4, 4-11) [I-1060]
0.185 | – | CO2Ph-[αAllylPro]D[tBuAla][B5(31)]DDAAFQ[PyrS2″][3Thi][Bta]H-NH2 (staple 1-4, 4-11) [I-2326]
0.01 | – | Ac-[αAllylPro]D[Cha][B5(5)]DQ[Lys(iPr)]AFL[PyrS2″]F[Bta]K-NH2 (staple 1-4, 4-11) [I-2429]
0.158 | – | Ac-[αAllylPro]D[tBuAla][B5(5)]NT[Aib]AFN[PyrS2″][3Thi][34ClF]Q-NH2 (staple 1-4, 4-11; reading uncertain; also: printed as Ac-PL3-Asp-Npg-B5-Asn-Thr-Aib-Ala-Phe-Asn-PyrS2-3Thi-34C1F-Gln-NH2) [I-2417]
10 | – | Ac-[αAllylPro]E[tBuAla][B5(31)]NTAAFN[PyrS2″][3Thi][Bta]Q-NH2 (staple 1-4, 4-11; also: staple isomer, earlier eluting HPLC peak) [I-2331]
10 | – | Ac-[αAllylPro]D[tBuAla][B5(5)]NT[Aib]AFL[PyrS2][3Thi][Bta]Q-NH2 (staple 1-4, 4-11) [I-2408]
1.35 | – | CO2Hex-[αAllylPro]D[tBuAla][B5(31)]D[Phe(3-COOH)]AAFL[PyrS2″][Phe(2-Cl)][Bta]A-NH2 (staple 1-4, 4-11) [I-2325]
0.376 | – | CO2Ph-[αAllylPro]D[tBuAla][B5(31)]D[Phe(3-COOH)]AAFL[PyrS2″][Phe(2-Cl)][Bta]A-NH2 (staple 1-4, 4-11) [I-2327]
10 | – | Ac-[αAllylPro]E[tBuAla][B5(31)]NTAAFN[PyrS2″][3Thi][Bta]Q-NH2 (staple 1-4, 4-11) [I-2332]
0.14 | – | Ac-[αAllylPro]D[tBuAla][B5(5)]NT[Aib]AFN[PyrS2″][3Thi][Bta]A-NH2 (staple 1-4, 4-11) [I-2411]
0.007 | – | Ac-[αAllylPro]D[tBuAla][B5(3)]N[Phe(3-COOH)]AAFN[PyrS2″][3Thi][Bta]Q-NH2 (staple 1-4, 4-11) [I-2335]
0.568 | – | {2‑(3-(allyloxy)phenyl)acetyl}-PD[tBuAla][B5(5)]D[TfeGA]AAFL[PyrS2][3Thi][Bta]Q-NH2 (staple 4-11, N-4; also: staples hydrogenated, -CH=CH- reduced to -CH2-CH2-) [I-2405]
3.36 | – | Ac-[αAllylPro]N[Cha][B5(5)]DQSAFL[PyrS2″]F[Bta]K-NH2 (staple 1-4, 4-11) [I-2422]
0.656 | – | Ac-[αAllylPro]D[tBuAla][B5(31)]NTAAFT[PyrS2″][3Thi][Bta]A-NH2 (staple 1-4, 4-11) [I-2334]
0.133 | – | Ac-[αAllylPro]D[tBuAla][B5(5)]NT[Aib]AFN[PyrS2″][3Thi][Bta]R-NH2 (staple 1-4, 4-11) [I-2413]
0.007 | – | Ac-[αAllylPro]D[tBuAla][B5(4)]D[Phe(3-COOH)][(bismethoxyethylamine)GlnR″]AFL[PyrS2″][2F3MeF][Bta]A-NH2 (staple 1-4, 4-11) [I-2322]
0.083 | – | Moc-[αAllylPro]D[tBuAla][B5(3)]D[Phe(3-COOH)]AAFL[PyrS2″][Phe(2-Cl)][Bta]A-NH2 (staple 1-4, 4-11) [I-2324]
– | 6.64 | Azidoacetyl-[αAllylPro]D[tBuAla][B5(5)][3Thi][TfeGA]AAFN[PyrS2]D[Bta]Q-NH2 (staple 1-4, 4-11; also: staple isomer unspecified: later eluting HPLC peak) [I-1057]
